We go through one molecule from patent JP2011160681A (dated 2011).

Targets include HAc peptide (Influenza A virus); Bovine serum albumin (bovine, UniProt P02769 25-607); HSA (UniProt P02768 25-609); Human hemoglobin (human, UniProt P69905 2-142; P68871 2-147).
Holding throughout (experiment): ELISA, antigen coated on the plate
In the next test the target is T1, TP41-1 peptide (HIV-1).
T1 peptide: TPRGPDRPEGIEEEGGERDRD

Sequence of HSA (P02768 25-609): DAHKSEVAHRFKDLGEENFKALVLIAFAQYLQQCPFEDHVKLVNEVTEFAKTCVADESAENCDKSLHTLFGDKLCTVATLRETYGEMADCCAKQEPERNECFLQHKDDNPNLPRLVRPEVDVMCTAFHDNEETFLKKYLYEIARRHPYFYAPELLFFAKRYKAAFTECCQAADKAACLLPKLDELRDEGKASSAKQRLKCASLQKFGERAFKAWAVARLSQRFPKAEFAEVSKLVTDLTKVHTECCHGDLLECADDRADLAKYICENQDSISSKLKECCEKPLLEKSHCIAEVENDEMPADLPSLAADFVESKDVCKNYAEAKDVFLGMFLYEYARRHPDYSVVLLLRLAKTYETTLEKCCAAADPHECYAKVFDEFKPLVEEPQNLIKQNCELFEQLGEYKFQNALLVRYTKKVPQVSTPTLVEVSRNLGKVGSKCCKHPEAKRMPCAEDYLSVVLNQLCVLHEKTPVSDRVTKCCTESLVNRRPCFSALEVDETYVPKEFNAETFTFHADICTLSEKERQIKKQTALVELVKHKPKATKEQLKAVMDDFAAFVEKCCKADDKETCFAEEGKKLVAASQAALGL
Sequence of Human hemoglobin (P69905 2-142 limits assumed, chain 1 of 2): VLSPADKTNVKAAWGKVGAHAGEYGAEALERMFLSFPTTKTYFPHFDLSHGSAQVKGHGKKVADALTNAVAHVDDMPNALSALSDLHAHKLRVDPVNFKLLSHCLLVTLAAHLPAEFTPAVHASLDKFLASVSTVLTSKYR
Sequence of Human hemoglobin (P68871 2-147 limits assumed, chain 2 of 2): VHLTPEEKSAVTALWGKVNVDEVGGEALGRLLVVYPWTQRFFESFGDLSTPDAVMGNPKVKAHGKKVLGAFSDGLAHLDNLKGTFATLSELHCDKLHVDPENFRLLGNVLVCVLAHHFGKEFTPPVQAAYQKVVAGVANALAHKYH
Sequence of Bovine serum albumin (P02769 25-607 limits assumed): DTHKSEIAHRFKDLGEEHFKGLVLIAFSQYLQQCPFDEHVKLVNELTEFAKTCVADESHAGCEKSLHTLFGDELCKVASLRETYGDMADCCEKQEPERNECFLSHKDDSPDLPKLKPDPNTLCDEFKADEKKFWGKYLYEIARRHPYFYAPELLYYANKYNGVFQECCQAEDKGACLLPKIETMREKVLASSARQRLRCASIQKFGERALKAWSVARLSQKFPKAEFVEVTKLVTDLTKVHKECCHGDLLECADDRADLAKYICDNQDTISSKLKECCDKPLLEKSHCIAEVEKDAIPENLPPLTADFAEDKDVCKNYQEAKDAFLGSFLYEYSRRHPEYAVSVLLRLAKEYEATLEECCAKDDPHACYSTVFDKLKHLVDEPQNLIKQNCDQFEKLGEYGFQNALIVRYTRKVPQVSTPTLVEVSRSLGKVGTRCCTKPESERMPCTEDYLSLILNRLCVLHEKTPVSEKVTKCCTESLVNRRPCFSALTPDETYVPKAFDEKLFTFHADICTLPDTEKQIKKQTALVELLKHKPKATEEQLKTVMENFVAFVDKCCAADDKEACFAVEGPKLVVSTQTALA

B1: InfA-15 monoclonal antibody (antibody, V domains shown)
VH: QVQLKESGPGLVAPSQSLSITCTVSGFSLTKSGLHWVRQPPGKGLEWLGVIWAGGSTDYNSALTSRLTITKDNSKSQIFFRLNSLQTADTAMYYCVRSTFLYAMDFWGQGTSVTVS
VL: DAVMTQTPLSLPVSLGDQASISCRSSPSLEHSNGNTYLNWYLQKPGQSPQLLIYRVSNRFSGVPDRFSGSGSGTDFTLKISRVEAEDLGVYFCLQVTHVPPTFGGGTKLEIKR
In the case of B1, the binding result with HAc peptide, in the test with Bovine serum albumin, with HSA, with Human hemoglobin and with TP41-1 peptide was “no binding (tested: 4 μg/ml (coated antigen))” throughout.
